Results published in patent CN105622755A (1ST AFFILIATED HOSPITAL OF 3RD MILITARY MEDICAL UNIV PLA, dated 2016).

Assays:
重组表达的PSMA胞外区蛋白 = biological target: T1, 重组表达的PSMA胞外区蛋白 (UniProt Q04609 44-750, limits assumed); experiment: indirect phage-ELISA, PSMA extracellular region coated at 5 μg/mL, HRP-anti-M13 detection
T1 construct: extracellular domain; also called 前列腺特异性膜抗原膜外区; PSMA抗原; not shown: His tag (purified with HisTrap FF Crude, detected with anti-His antibody)

[1] = biological target: T2, 前列腺特异性膜抗原 (PSMA) on LNCaP cells (UniProt Q04609 1-750, limits assumed); experiment: cell ELISA (OD450) and immunofluorescence on fixed LNCaP cells (PSMA+) against MKN45 cells (PSMA-), anti-M13 detection
T2 construct: whole, on cells; Endogenous PSMA on fixed LNCaP cells; also called prostate specific membrane antigen; LNCaP细胞(表达PSMA)
T2 sequence (Q04609 whole entry): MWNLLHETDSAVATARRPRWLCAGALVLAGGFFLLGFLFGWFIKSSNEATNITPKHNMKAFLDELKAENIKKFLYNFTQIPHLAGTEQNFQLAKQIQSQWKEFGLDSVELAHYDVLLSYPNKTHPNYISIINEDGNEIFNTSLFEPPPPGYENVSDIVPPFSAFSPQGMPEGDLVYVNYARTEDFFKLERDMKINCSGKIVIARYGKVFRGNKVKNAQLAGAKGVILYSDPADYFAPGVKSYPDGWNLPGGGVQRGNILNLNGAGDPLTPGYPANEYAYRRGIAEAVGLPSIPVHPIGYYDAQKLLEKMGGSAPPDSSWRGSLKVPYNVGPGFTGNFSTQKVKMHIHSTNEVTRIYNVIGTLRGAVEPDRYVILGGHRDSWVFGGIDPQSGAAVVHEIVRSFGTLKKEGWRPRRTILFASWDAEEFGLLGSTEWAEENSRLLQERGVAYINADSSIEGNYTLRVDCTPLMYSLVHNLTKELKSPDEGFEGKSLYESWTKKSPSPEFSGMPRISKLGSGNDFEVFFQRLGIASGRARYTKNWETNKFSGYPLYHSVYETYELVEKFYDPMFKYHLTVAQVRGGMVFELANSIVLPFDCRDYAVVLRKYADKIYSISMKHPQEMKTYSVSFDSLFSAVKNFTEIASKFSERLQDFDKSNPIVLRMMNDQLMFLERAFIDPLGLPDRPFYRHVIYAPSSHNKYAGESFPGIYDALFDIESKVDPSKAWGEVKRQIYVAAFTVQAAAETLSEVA

T1 sequence (Q04609 44-750 limits assumed): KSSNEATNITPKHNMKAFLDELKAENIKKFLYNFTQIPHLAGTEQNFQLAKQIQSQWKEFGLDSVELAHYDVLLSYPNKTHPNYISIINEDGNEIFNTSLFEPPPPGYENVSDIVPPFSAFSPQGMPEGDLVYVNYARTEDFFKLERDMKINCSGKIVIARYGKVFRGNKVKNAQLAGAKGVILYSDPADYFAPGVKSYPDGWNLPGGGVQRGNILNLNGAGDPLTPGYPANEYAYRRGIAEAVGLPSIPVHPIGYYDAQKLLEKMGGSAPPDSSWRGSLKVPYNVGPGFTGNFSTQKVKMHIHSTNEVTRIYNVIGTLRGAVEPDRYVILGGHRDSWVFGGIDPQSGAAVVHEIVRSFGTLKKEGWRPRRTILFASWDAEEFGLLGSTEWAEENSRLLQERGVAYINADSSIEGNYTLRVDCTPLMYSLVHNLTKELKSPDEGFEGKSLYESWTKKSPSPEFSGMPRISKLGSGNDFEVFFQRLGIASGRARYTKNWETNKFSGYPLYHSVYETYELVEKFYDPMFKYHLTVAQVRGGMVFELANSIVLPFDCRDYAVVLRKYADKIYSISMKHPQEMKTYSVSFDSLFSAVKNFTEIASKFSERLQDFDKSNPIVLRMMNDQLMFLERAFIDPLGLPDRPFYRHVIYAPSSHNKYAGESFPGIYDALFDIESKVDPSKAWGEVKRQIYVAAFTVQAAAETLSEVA

B1: 抗前列腺特异性膜抗原单域重链抗体噬菌体阳性克隆 (VHH)
VHH: QVQLVESGGGLVQAGDSLRLSCAASRRTFSFMAWYRQAPGKQRELVAAITSGGRNTNYADSVKGRFTISRDNAKNTMYLQMNSLKPEDTAVYYCNAAARWNNYWGQGTPVTVSS
notes: The phage coat protein fusion and any linker are not described; Selected from a naive camelid VHH phage display library; also called 针对前列腺特异性膜抗原的单域重链抗体阳性克隆; 展示本发明所述纳米抗体的噬菌体克隆
重组表达的PSMA胞外区蛋白
  binding result: binds
[1]
  binding result: binds
